Data reported in article PMC9597577, “Mutant Ras and inflammation-driven skin tumorigenesis is suppressed via a JNK-iASPP-AP1 axis” (Cell Reports, 2022).

B1: JunD peptide (WLKPAAAPPPTPLRADGAPSA) (peptide)
peptide: WLKPAAAPPPTPLRADGAPSA
B2: PP1alpha peptide (WNPGGRPITPPRNSA) (peptide)
peptide: WNPGGRPITPPRNSA
notes: leading tryptophan; PxxP-containing peptide derived from the phosphatase PP1 (PP1alpha), C-terminal tail; also called PP1 peptide; source: synthetic peptide (TUCF, custom made)

What was measured:
[1] = biological target: T1, ASPP1 CTD (887–1090) (Homo sapiens (Human), UniProt Q96KQ4); experiment: ITC
T1 chain: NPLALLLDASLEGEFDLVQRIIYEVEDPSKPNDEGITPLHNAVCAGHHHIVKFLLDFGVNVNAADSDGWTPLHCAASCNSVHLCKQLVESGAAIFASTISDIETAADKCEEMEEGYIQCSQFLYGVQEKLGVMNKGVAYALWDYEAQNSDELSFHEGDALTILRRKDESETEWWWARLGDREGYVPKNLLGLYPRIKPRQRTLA

[2] = biological target: T2, ASPP1 CTD (887–1090) (Homo sapiens (Human), UniProt Q96KQ4); experiment: ITC
T2 chain: T1 chain

[3] = biological target: T3, iASPP CTD (625–828) (UniProt Q8WUF5 625-828); experiment: ITC
T3 chain: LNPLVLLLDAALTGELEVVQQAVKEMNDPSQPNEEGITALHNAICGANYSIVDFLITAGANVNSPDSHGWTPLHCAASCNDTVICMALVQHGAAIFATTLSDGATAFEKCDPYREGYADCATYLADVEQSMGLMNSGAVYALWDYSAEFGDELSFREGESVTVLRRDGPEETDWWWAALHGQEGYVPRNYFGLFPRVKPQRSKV

[4] = biological target: T4, Halo-tagged iASPP CTD (625–828) (UniProt Q8WUF5 625-828); experiment: pull-down; displacement pull-down: 25 μM JunD or PP1 peptide added to Halo-iASPP CTD on magnetic Halo beads, read by loss of in vitro translated Myc-tagged protein; details: both partners purified
T4 construct: iASPP C-terminal domain (CTD) with the SH3 domain, residues 625-828; also called iASPP CTD fused to Halo-Tag; not shown: HaloTag, N-terminal, kept
T4 sequence (looked up): T3 chain

| Binder | binding result [1] | binding result [2] | Kd [3] [µM] | binding result [4] |
| --- | --- | --- | --- | --- |
| B1 | no binding | no binding | 4.58 | – |
| B2 | – | – | – | binds |
